Experiments:
[1] = system: AncSZ; test: phosphorylation enrichment, bacterial display (enrichment ratio); higher = better substrate or ligand; peptides without Tyr show the background
[2] = target: EPHB1 (UniProt P54762); test: as above
[3] = target: EPHB2 (UniProt P29323); test: as above
[4] = target: FGFR1 (UniProt P11362); test: as above
[5] = target: FGFR3 (UniProt P22607); test: as above
[6] = system: Fer (mouse); test: as above
[7] = target: Fes (UniProt P07332); test: as above
[8] = target: Fyn (UniProt P06241); test: as above
[9] = target: Hck (UniProt P08631); test: as above
[10] = target: Jak2 (UniProt O60674); test: as above
[11] = target: MERTK (UniProt Q12866); test: as above
[12] = system: c-Abl (mouse); test: as above
[13] = system: c-Src; test: as above
[14] = target: Grb2 SH2 (UniProt P62993); test: SH2 binding enrichment of the phosphorylated peptide, bacterial display (enrichment ratio); higher = better substrate or ligand; peptides without Tyr show the background
[15] = target: SHP2-C SH2; test: as above
[16] = target: c-Src SH2; test: as above
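For SH2 binding enrichment of the phosphorylated peptide, bacterial display in this document: peptide library displayed on the E. coli surface as eCPX fusions, selected cells deep-sequenced, score is each peptide's frequency after selection divided by its frequency in the input.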
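For phosphorylation enrichment, bacterial display in this document: 11-residue human phosphosite peptides and single-mutation variants displayed on the E. coli surface, counted by deep sequencing, each peptide's frequency after selection divided by its frequency in the unselected input library; frequency after pTyr selection over input frequency; kinase dosed for 20-30% of maximal phosphorylation in three min.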

Sequence of Fes (P07332 whole entry, looked up): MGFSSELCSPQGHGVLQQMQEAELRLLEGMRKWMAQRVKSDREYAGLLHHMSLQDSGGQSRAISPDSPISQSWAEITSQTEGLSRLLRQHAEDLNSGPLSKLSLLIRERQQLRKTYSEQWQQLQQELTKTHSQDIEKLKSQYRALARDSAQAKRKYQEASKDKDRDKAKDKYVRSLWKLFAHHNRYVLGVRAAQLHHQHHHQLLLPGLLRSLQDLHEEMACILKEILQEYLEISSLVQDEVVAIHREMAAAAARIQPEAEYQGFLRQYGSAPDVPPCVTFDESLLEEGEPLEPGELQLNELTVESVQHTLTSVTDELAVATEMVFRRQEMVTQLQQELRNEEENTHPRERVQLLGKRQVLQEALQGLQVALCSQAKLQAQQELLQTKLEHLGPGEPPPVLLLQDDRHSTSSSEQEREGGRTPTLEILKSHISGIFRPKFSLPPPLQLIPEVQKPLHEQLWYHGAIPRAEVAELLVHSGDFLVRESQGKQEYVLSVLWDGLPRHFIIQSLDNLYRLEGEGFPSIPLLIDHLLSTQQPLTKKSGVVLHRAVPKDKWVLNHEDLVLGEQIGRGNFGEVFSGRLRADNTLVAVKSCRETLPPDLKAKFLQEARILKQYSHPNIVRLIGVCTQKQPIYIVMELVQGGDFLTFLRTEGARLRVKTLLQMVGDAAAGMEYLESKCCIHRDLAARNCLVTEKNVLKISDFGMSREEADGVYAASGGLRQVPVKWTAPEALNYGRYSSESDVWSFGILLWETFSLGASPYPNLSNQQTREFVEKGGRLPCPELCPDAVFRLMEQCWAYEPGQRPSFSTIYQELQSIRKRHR
Sequence of Jak2 (O60674 whole entry, looked up): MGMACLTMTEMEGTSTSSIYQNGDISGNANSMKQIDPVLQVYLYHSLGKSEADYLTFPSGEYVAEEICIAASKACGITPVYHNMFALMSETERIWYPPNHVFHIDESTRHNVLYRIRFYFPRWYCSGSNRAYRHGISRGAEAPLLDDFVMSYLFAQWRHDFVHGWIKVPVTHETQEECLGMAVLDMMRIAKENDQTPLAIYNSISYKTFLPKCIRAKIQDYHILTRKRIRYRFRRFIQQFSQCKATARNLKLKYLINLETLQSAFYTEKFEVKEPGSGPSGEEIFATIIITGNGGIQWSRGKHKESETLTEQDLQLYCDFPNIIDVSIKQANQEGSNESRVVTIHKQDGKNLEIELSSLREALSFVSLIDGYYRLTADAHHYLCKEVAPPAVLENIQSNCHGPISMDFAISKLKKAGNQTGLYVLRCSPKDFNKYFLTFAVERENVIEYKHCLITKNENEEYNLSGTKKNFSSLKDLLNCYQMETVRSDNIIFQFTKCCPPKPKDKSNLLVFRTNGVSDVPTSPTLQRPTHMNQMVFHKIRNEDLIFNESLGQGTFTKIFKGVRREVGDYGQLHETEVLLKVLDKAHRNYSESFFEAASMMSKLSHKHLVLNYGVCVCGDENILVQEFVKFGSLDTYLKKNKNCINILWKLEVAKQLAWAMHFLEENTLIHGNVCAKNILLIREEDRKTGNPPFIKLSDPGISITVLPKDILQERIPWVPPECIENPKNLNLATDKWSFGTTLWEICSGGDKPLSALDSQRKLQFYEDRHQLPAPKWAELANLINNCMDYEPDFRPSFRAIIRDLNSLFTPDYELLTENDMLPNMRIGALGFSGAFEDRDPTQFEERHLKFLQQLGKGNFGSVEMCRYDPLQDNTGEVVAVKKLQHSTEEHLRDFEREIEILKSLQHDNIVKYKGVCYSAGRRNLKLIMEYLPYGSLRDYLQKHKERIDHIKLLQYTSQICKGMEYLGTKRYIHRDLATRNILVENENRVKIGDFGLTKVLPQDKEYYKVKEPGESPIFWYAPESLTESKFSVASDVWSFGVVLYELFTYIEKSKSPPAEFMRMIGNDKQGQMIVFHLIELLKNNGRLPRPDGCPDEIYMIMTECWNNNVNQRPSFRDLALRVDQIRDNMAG
Sequence of EPHB2 (P29323 whole entry, looked up): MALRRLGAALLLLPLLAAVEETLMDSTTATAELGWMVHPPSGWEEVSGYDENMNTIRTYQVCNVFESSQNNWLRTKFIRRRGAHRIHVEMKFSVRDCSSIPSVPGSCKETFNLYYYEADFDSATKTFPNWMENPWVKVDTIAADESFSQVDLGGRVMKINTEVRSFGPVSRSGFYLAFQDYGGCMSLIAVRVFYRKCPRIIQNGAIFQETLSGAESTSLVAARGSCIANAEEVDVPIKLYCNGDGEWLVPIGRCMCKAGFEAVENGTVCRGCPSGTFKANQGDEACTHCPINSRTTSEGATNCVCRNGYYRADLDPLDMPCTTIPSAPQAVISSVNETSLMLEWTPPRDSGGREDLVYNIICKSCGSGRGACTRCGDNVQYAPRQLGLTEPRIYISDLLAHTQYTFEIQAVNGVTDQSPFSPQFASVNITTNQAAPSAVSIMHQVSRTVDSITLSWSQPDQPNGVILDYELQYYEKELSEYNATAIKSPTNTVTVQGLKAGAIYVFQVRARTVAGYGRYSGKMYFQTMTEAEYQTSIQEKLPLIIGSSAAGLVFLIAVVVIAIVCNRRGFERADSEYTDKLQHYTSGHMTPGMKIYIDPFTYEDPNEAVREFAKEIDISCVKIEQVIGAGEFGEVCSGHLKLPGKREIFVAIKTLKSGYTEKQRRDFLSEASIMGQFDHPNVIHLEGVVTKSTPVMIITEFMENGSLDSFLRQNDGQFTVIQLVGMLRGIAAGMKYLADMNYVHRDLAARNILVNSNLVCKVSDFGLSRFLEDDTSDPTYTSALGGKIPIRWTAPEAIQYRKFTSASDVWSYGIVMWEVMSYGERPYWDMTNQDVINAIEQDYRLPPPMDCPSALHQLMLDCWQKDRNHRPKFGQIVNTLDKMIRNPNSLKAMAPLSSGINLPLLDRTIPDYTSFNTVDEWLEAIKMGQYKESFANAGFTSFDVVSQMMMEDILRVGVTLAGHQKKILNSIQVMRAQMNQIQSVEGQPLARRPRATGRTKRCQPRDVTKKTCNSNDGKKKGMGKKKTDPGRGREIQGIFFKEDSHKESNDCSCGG
Sequence of EPHB1 (P54762 whole entry, looked up): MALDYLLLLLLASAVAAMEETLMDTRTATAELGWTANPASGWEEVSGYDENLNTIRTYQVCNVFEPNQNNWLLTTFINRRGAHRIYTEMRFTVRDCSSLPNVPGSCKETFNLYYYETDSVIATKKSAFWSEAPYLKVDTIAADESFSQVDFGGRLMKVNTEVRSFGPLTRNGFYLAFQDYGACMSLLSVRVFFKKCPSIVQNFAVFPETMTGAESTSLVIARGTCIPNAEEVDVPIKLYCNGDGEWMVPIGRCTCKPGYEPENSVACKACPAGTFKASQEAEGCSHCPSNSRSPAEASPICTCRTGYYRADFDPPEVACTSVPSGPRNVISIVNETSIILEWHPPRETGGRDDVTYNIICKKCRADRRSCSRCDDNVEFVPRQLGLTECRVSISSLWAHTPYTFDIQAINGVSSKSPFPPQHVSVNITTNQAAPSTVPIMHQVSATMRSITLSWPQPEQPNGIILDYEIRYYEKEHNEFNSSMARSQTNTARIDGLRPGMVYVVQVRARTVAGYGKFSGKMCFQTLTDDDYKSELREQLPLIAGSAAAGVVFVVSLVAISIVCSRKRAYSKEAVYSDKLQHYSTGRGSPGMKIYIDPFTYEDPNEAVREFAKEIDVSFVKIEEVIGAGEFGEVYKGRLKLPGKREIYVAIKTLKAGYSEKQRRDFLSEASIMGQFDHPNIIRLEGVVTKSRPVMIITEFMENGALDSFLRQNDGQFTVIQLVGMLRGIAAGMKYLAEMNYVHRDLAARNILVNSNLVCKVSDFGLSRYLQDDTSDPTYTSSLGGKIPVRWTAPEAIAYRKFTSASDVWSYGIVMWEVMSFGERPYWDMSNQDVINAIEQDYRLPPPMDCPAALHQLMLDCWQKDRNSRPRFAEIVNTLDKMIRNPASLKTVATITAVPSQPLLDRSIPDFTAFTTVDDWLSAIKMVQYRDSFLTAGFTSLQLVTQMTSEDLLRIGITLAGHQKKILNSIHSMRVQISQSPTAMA
Sequence of FGFR3 (P22607 whole entry, looked up): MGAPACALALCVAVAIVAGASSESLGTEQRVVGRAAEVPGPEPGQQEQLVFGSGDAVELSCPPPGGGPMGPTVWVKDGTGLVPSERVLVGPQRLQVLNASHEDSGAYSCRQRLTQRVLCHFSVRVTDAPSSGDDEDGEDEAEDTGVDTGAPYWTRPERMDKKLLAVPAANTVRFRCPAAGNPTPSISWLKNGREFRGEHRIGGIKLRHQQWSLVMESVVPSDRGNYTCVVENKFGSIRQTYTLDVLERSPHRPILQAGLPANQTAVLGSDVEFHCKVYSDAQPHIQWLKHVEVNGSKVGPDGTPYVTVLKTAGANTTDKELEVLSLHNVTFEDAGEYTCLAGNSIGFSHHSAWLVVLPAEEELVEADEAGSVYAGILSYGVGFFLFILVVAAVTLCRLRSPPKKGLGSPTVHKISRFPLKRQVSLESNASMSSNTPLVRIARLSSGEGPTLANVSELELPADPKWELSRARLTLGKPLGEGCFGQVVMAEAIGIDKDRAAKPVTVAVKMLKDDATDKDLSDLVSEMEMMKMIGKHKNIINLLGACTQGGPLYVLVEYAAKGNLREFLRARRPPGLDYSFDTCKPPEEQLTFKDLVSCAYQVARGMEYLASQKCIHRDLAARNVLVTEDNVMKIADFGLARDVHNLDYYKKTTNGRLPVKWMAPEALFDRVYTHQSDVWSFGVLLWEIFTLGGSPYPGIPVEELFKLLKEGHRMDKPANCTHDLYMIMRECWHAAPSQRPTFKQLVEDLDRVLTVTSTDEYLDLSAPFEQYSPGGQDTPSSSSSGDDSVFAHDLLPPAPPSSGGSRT
Sequence of Grb2 SH2 (P62993 whole entry, looked up): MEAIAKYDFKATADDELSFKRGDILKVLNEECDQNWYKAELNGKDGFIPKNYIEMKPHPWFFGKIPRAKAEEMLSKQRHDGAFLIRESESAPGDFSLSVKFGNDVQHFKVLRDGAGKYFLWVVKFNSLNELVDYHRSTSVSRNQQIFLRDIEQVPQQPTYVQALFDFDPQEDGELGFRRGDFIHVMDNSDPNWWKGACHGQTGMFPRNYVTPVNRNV

Sequence	phosphorylation enrichment [1]	phosphorylation enrichment [2]	phosphorylation enrichment [3]	phosphorylation enrichment [4]	phosphorylation enrichment [5]	phosphorylation enrichment [6]	phosphorylation enrichment [7]	phosphorylation enrichment [8]	phosphorylation enrichment [9]	phosphorylation enrichment [10]	phosphorylation enrichment [11]	phosphorylation enrichment [12]	phosphorylation enrichment [13]	SH2 binding enrichment [14]	SH2 binding enrichment [15]	SH2 binding enrichment [16]
ETAENYLGFTA [HSPA9_Y181_H184Y_YF]	1.17	0.743	0.633	0.578	0.807	0.486	1.1	0.505	0.53	0.855	0.514	0.879	0.569	0.703	0.654	0.45
ETKENYGKTLK [CHL1_Y291]	0.526	0.348	0.297	0.325	0.508	0.351	0.541	0.61	0.498	0.504	0.383	0.414	0.433	1.16	0.562	0.664
ETKGDYEKILV [ANXA1_Y335]	1.16	0.713	0.625	0.548	0.682	1.04	1.17	0.506	0.651	1.01	0.454	0.82	0.523	0.815	0.54	1.08
EVGRVYLFLQP [ITGA2B_Y360]	1.18	0.838	0.676	0.401	0.676	0.627	1.51	0.379	0.445	1.3	0.34	0.884	0.409	0.726	0.737	0.417
EVKRLYGSVCD [TC2N_Y154]	0.866	0.529	0.585	0.475	0.703	0.543	1.16	0.695	0.61	1.06	0.515	0.849	0.656	0.714	0.744	0.56
EVLKNYSQQKD [GOLGA4_Y1551_N1552S]	0.545	0.419	0.456	0.404	0.56	0.417	0.609	0.438	0.476	0.657	0.458	0.494	0.433	0.887	0.782	0.501
EVTQDYGLDPK [FH_Y110_N107T]	1.32	0.606	0.637	0.558	0.902	0.625	1.36	0.513	0.574	1.06	0.528	0.842	0.504	0.672	0.648	0.461
EVVGKYSVHNA [MLH1_Y183_R182K]	0.612	0.363	0.363	0.352	0.449	0.426	0.697	0.428	0.388	0.569	0.374	0.527	0.438	0.954	0.842	0.455
EYKKKYSDADI [CKAP5_Y1860]	0.709	0.393	0.474	0.404	0.475	0.399	0.819	0.442	0.367	0.671	0.383	0.637	0.371	0.819	0.614	0.435
EYYENYIEELK [PARP4_Y218_F215Y]	2.04	1.09	0.967	4.75	3.7	0.706	1.29	0.648	0.554	1.11	0.38	0.775	1.01	2.13	0.706	1.04
FADIAYNFHHG [PAH_Y166_R169H_YF]	0.686	0.427	0.524	0.515	0.478	0.483	0.725	0.704	0.528	0.43	0.406	0.354	0.501	0.62	0.564	0.566
FALAEYTEVKT [ALDH1A3_Y497_YF]	1.03	0.59	0.475	0.894	0.903	0.567	1.11	0.719	0.635	0.765	0.45	0.757	0.621	0.861	0.506	1.9
FARNSYVAGQF [G6PD_Y107_YF]	0.662	0.321	0.398	0.503	0.522	0.36	0.712	0.489	0.501	0.522	0.427	0.442	0.408	0.81	0.517	0.442
FCRIMYDIFPF [INTS13_Y67_YF]	1.71	2.66	2.61	0.531	0.743	1.18	1.74	1.31	3.11	1.57	4.83	1.38	3	0.93	0.862	0.8
FFRDGCMPRQF [GSS_Y270_Y270C_YF]	0.863	0.533	0.518	0.416	0.606	0.489	1.2	0.464	0.497	0.949	0.386	0.717	0.463	0.849	0.496	0.506
FFWDGYMPRQF [GSS_Y270_R267W_YF]	1.12	0.601	0.551	0.481	0.735	0.504	1.19	0.349	0.471	3.7	0.398	0.734	0.43	1.05	0.782	0.81
FGDTPYIPFRD [CDC14C_Y132]	0.764	0.495	0.458	0.522	0.662	0.542	0.905	0.55	0.54	0.646	0.445	0.589	0.781	0.809	0.757	0.602

Sequence	phosphorylation enrichment [1]	phosphorylation enrichment [2]	phosphorylation enrichment [3]	phosphorylation enrichment [4]	phosphorylation enrichment [5]	phosphorylation enrichment [6]	phosphorylation enrichment [7]	phosphorylation enrichment [8]	phosphorylation enrichment [9]	phosphorylation enrichment [10]	phosphorylation enrichment [11]	phosphorylation enrichment [12]	phosphorylation enrichment [13]	SH2 binding enrichment [14]	SH2 binding enrichment [15]	SH2 binding enrichment [16]
FGLPRYRWLTH [TSPAN12_Y143_YF]	1.01	0.526	0.692	0.529	0.468	0.446	0.858	0.552	0.526	0.687	0.585	0.616	0.448	0.584	0.657	0.609
FGSGNYNVFGN [HNRNPA2B1_Y300_D302V_YF]	0.575	0.481	0.476	0.483	0.434	0.338	0.508	0.396	0.423	0.449	0.406	0.328	0.412	0.766	0.805	0.682
FGTAQYCCRMG [LRRK2_Y2023_I2020T_YF]	0.663	0.598	8.12	0.56	0.517	0.499	0.693	0.463	0.518	0.515	1.79	1.28	0.403	0.978	0.863	0.772
FGVTLYPNSRE [MEP1A_Y472]	1.02	0.675	0.68	0.556	0.766	0.398	1.17	0.432	0.599	0.92	0.714	0.995	0.541	0.891	0.858	0.638
FIGCIYLFLTK [GARS1_Y414_R412C_YF]	0.803	0.251	0.49	0.458	0.573	0.456	0.772	0.399	0.485	0.792	0.415	0.748	0.314	1.86	1.71	1.33
FLTQHYDAKPQ [ANG_Y38]	0.732	0.637	0.581	1.14	0.58	0.658	0.741	0.583	0.67	0.869	0.557	0.613	0.609	0.902	0.64	0.481
FMLFQYLKQIE [RPAP3_Y569_D564Y_YF]	1.12	0.539	0.716	0.468	0.783	0.506	1.36	0.447	0.505	1.27	0.482	1.07	0.498	1.53	1.48	1.08
FNVLQYVVPKV [EIF3A_Y382_E386K]	0.832	1.09	0.607	1.1	1.02	0.348	0.797	0.465	0.386	2.2	1.41	9.24	0.383	1.31	2.18	0.964
FPHVIYARLWR [SMAD4_Y95]	0.917	3.11	1.16	0.567	0.648	0.539	0.85	5.08	5.38	0.751	1.5	10.1	5.17	0.767	0.61	0.425
FPLELYERVRI [PRKCG_Y312_M317I_YF]	1.34	1.66	1.1	0.498	0.652	3.28	1.29	0.48	1.18	1.39	0.453	0.739	0.528	0.854	0.775	0.567
FQKNVYSEELR [LMNA_Y211_I210V]	0.674	0.456	0.48	0.418	0.449	0.417	0.727	0.613	0.486	0.672	0.518	0.535	0.68	1.24	0.591	0.566
FQLENCCNGGG [INS_Y108_Y108C_YF]	0.896	0.509	0.586	0.442	0.523	0.564	0.944	0.445	0.504	0.85	0.516	0.546	0.467	0.772	0.444	0.537
FQQLFYLLQIN [IQGAP2_Y890_T894I_YF]	1.51	0.82	0.815	0.648	1.01	0.658	1.76	0.541	0.617	1.47	0.611	1.06	0.639	1.14	1.1	0.889
FQRLQYIKQLG [SAMHD1_Y146_R145Q]	0.715	0.92	0.705	0.451	0.517	0.453	0.854	0.374	0.418	0.934	0.404	0.665	0.476	0.867	0.666	0.422
FRAPGYREVVI [TNS2_Y673_YF]	0.52	0.466	0.422	0.502	0.446	0.325	0.618	0.399	0.416	0.55	0.467	0.525	0.409	0.942	1.13	0.667
FRPPYYHRNCM [HGD_Y334]	0.708	0.429	0.449	0.513	0.504	0.477	0.88	0.418	0.432	0.89	0.426	0.799	0.442	1.21	1.23	1.15

From the supplement of paper PMC10065799, “High-throughput profiling of sequence recognition by tyrosine kinases and SH2 domains using bacterial peptide display” (eLife, 2023)
